In the domain aggregation screens of Martell et al. (2025):

Test: soluble fraction after stress (log2 fold change); higher = more stays soluble; pooled small domains, quantitative proteomics
Details: stress: pH 4
Method in brief: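 Custom libraries of small protein domains were pooled and exposed to pH 4. High-throughput quantitative proteomics then measured the log2 fold change in the amount of each domain still soluble, with higher values meaning more stayed soluble. This soluble-fraction fold change stands for aggregation propensity.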

Sequence	soluble fraction (log2)
HMSQNVQDVFLNHVRKSKNPVTVFLVNGVKLQGIITWFDNFSVLLRREGHTQLVYKHAISTVMPSGPIQLF	0.22
HMNNTVLSSVKSINMFLDANGGDAGQAFRIYNNTNPDSNPTESTYIFKVAEDGNTFVKGYLNLNGTTL	0.378
HMSSYAEVMERSKYLQLHKYKIWKSETDGFWRTYYLNEQGKRKMKKLKHSEDMIDFVIEYVQNNE	-1.06
HMGKVNGFEITVIEGKNVVGSITPRQAIAKNSDGVIQLRGEQSFSATDQVLINELAFYIKSNNLKA	-1.23
HMGSAKAQLYDLMNAHQVTRNQIQDIVAEKGYFPAGTPIENYPDDFVKGVLVGAWDQVHKAILDKEI	-0.437
HMDPLGALSDRERQVLALIGQGHGLQAIADQLGVSYKTAANTSSALKKKLGVDGINGLMKFALDSG	0.023
HMQDIDIVDLKRISELIYQKYNYDFRNYAMSSFKRRVQRIIELKKLTVDGLIKRLNDTPSFINEFLDELTV	-0.2
HMGTAGLSPWHKIAVLMIALGPEGASELMRHFGEDEVEQVVQAIADLKNVPSELQDAVLLEMEGALQEG	-0.796
HMWNTADDIKEAIWKLIQSEDPKKPYSDLKISQLLLEKEMKISRRTVAKYRKEMGILGTYSRK	0.23
HMTNKSKQRRNEILRASQELFNKKGFHDTSINDIMRRVGAAKGVFYYYFETKDQILDTLIEQHIA	-0.471
HMSYGDLTGRTVVITGASKGIGARASRVLAQAGASVVGLARSVDELTALKYDLENDGLSFDFG	≥ 0.43
HMKVRVFIERSNDGYSAYMPDDNNLPFGLTGDGKTAQEAMQDFLLARDEMKEFFIEEGKEFPEVEFDFS	-1.49
HMLEKDIGKAITILRKSYQLSISAFSMRTGYSRVHISEVESGKRKATDELISVIRNVFHLDSNWPF	-0.517
HMSTDSTQLLGFNKTGEELPIYKEANEENKFAEIPQNVYVKNFGQNGEFTKIKYLDQEGYVKTAGLK	0.199
HMKPDAAKREQLIDIALRLFSQQGIARTSLNAIAREAGVTPAMLHYYFNSREQLLDVMIEERFL	-1.45
HMVIIPNILNKYKGLAFRQLEQVGLKIGDTIYEPNIQRDAVLRMQINGRSVQPGDQVMRFSVVDLVIG	-1.14
HMVPDGFDQLTEREYQVAMAVGKGLNNKEIASQLGLGERTVKAHLTTTFEKLHVRDRVQLALIVNRL	-0.404
HMAGYDTYMVDRDAELLPWLLETLQRESRSKVKATLQGNGIKVNGKRVTQFNYPLKAGMKVSVSKSK	0.129
HMAKIKVFELKNQINSLIKNKIESKDIIDFIETNFGVKKSHSSALEENEANFIKNYFVHADKA	-0.141

Sequence	soluble fraction (log2)
HMDTIYMVVAKNIKYYRLIKSMSKKDLAEAVNVTPMAISNYENGKRKPEIDILKKIANVLGVRVVDFLTVR	-0.194
HMPSKKHARWIELEARKFMADNEDAVSDLHELRTRAANFAALKTSTLPVDQHRAIVAGFVARVNELGRRI	-0.19
HMGAEWTEMRVWTSTSGSKVTAEASSLTNGQVTLETKSGKRITLSIRKLVEADQKFLEAHFSK	0.101
HMAVKPIDRLRSLMAESNVTDAELQKVVADKGHYAADAPIDSYSEKFISGWLIKYWSQILNLINADRTVL	-0.0558
HMDDYRSLRGQEKAAIFLMSLSQEQAAKIFANLDDEEIKEISQAMSSLGTVGSEIIERLFVEFAEQVSS	-1.08
HMAGPTIVTNSQGVPNYHLVKRGDTVSQIAQRYGLNYRQIGAINNLDSKYTIYSGQWLKLWQG	-0.00755
HMDTFEITVEESDIDKRIDLFLAGNLESFSRSYIQDLIKKGKATISGKPVKANYRLREGDSVVLSIPKPK	-0.946
HMDSGLLSAREREVAGLVLSGMTYAEIGEAIFISPRTAEHHIARIRRRLGATSRTDLIAKLQAIVGID	-1.42
HMRKIKDVLRLKLHAGLSHERVAASLNISKGVVAKYTSLAAAAGLDWPTVERLSEAALERRLV	0.22
HMSYFNEYEVGDTIRVVNGPLADQISTITAIDKEKGLVNISTVFFGRENNVQVSINDIEKYN	-0.903
HMKLSIEDLAAELIRKIEAGDIGNEQGKMPSERELLAIYPVSRYTLRQALNKLSKMGWIYQMQGRGSYIRF	-0.83
HMGRPQISDELRNAIIEVAKDNRDWGYIRIQGQLKYLGYRVSTATIGKVLKKAGLEPQPDRRRK	-0.667
HMGEDLTIDQLAAEVDMTVRNIRAHQARGLLPPPTIKGRIGYYGPLHRRRLQQIRAMQEEGLNLAAIAKVV	-0.533
HMNSHQNELDNALTEAHTASRRLLEGTDEYLDLSSQPAYIRRLQHLLAQKYNLGSLSSGVEPNRHIRLLQ	-0.174
HMAMLSKREAEILKLTAKGHSSTDIAQRLTISVNTVEFHRRRIMQKLNAANVAEAVGKAAELGLFF	-0.47
HMLSRKEVFTVSQKDIEKNPIGAADKFFDGHVGIHKLLVVDEEDRLRGLFTLSDIERINDEQ	-0.0114
HMLIDSNNYFFYKVKPKEGFYSLQKKLGVNRSEIEKHNPSLINEVLKEGMILKIPKYLLNFDLN	-0.214
HMKRLPFSFAKRFGVVVEDGEPPIVHHRDGASAETLLEVRRRLGQVFTLQRHDAEAFERLLTQAYQR	-0.837
HMRPILTLEEAKAKALAHAGLKADQVTFTEAKLDWDDGKQVYDIEFYTADFKEYDYEIDAKTGEVLEVDY	0.0375
